± gives the standard deviation of the averaged measurements.
Experiment: total protein half-life in vivo (active degradation + dilution); higher = more stable protein
[1] = E. coli NCM3722 delta-smpB, growth: N-lim chemostat, doubling time 6 h
[2] = E. coli NCM3722 delta-clpP delta-lon delta-hslV, growth: N-lim chemostat, doubling time 6 h
[3] = E. coli NCM3722 delta-clpP, growth: N-lim chemostat, doubling time 6 h
[4] = E. coli NCM3722 delta-hslV, growth: N-lim chemostat, doubling time 6 h
[5] = E. coli NCM3722 delta-lon, growth: N-lim chemostat, doubling time 6 h
[6] = wild type E. coli NCM3722, growth: C-lim chemostat, doubling time 3 h
[7] = wild type E. coli NCM3722, growth: C-lim chemostat, doubling time 6 h
[8] = wild type E. coli NCM3722, growth: C-lim chemostat, doubling time 12 h
[9] = wild type E. coli NCM3722, growth: N-lim chemostat, doubling time 6 h
[10] = wild type E. coli NCM3722, growth: N-lim chemostat, doubling time 12 h
[11] = wild type E. coli NCM3722, growth: P-lim chemostat, doubling time 6 h
[12] = wild type E. coli NCM3722, growth: P-lim chemostat, doubling time 12 h

Sequence	total protein half-life in vivo [1]	total protein half-life in vivo [2]	total protein half-life in vivo [3]	total protein half-life in vivo [4]	total protein half-life in vivo [5]	total protein half-life in vivo [6]	total protein half-life in vivo [7]	total protein half-life in vivo [8]	total protein half-life in vivo [9]	total protein half-life in vivo [10]	total protein half-life in vivo [11]	total protein half-life in vivo [12]
MNSKKLCCICVLFSLLAGCASESSIDEKKKKAQVTQSNINKNTPQQLTDKDLFGNETTLAVSEEDIQAALDGDEFRVPLNSPVILVQSGNRAPETIMQEEMRKYYTVSTFSGIPDRQKPLTCNKNKDKNENEDVASAENMNWMQALRFVAAKGHQKAIIVYQDMLQTGKYDSALKSTVWSDYKNDKLTDAISLRYLVRFTLVDVATGEWATWSPVNYEYKVLPPLPDKNEASTTDMTEQQIMQLKQKTYKAMVKDLVNRYQ	2.44 h	–	–	–	–	–	–	–	–	–	–	–
MNSLFASTARGLEELLKTELENLGAVECQVVQGGVHFKGDTRLVYQSLMWSRLASRIMLPLGECKVYSDLDLYLGVQAINWTEMFNPGATFAVHFSGLNDTIRNSQYGAMKVKDAIVDAFTRKNLPRPNVDRDAPDIRVNVWLHKETASIALDLSGDGLHLRGYRDRAGIAPIKETLAAAIVMRSGWQPGTPLLDPMCGSGTLLIEAAMLATDRAPGLHRGRWGFSGWAQHDEAIWQEVKAEAQTRARKGLAEYSSHFYGSDSDARVIQRARTNARLAGIGELITFEVKDVAQLTNPLPKGPYGTVLSNPPYGERLDSEPALIALHSLLGRIMKNQFGGWNLSLFSASPDLLSCLQLRADKQYKAKNGPLDCVQKNYHVAESTPDSKPAMVAEDYTNRLRKNLKKFEKWARQEGIECYRLYDADLPEYNVAVDRYADWVVVQEYAPPKTIDAHKARQRLFDIIAATISVLGIAPNKLVLKTRERQKGKNQYQKLGEKGEFLEVTEYNAHLWVNLTDYLDTGLFLDHRIARRMLGQMSKGKDFLNLFSYTGSATVHAGLGGARSTTTVDMSRTYLEWAERNLRLNGLTGRAHRLIQADCLAWLREANEQFDLIFIDPPTFSNSKRMEDAFDVQRDHLALMKDLKRLLRAGGTIMFSNNKRGFRMDLDGLAKLGLKAQEITQKTLSQDFARNRQIHNCWLITAA	5.37 ± 0.12 h	5.837 ± 0.045 h	6.06 ± 0.79 h	5.92 ± 0.34 h	6.466 ± 0.03 h	3.13 ± 0.17 h	6.101 ± 0.011 h	10.4 ± 0.11 h	5.428 ± 0.015 h	10.47 ± 0.039 h	6.129 ± 0.044 h	13.1 ± 1.5 h
MNSLRPELLELTPQALTALSNAGFVKRSLKELENGNVPEISHENDALIATFSDGVRTQLANGQALKEAQCSCGANGMCRHRVMLVLSYQRLCATTQSTEKEEEWDPAIWLEELATLPDATRKRAQALVAKGITIELFCAPGEIPSARLPMSDVRFYSRSSIRFARCDCIEGTLCEHVVLAVQAFVEAKAQQAEFNHLIWQMRSEHVTSSDDPFASEEGNACRQYVQQLSQTLWLGGISQPLIHYEAAFNRALQAAETCNWRWVSESLRQLRASVDAFHARASHYNAGECLHQLAALNSRLNCAQEMARRDSIGEVPPVPWRTVVGSGIAGEAKLDHLRLVSLGMRCWQDIEHYGLRIWFTDPDTGSILHLSRSWPRSEQENSPAATRRLFSFQAGALAGGQIVSQAAKRSADGELLLATRNRLSSVVPLSPDAWQMLSAPLRQPGIVALREYLRQRPPACIRPLNQVDNLFILPVAECISLGWDSSRQTLDAQVISGEGEDNVLTLSLPASASAPYAVERMAALLQQTDDPVCLVSGFVSFVEGQLTLEPRVMMTKTRAWALDAETTPVAPLPSASVLPVPSTAHQLLIRCQALLIQLLHNGWRYQEQSAIGQA	–	3.47 h	–	–	–	–	–	–	–	–	–	–
MNSLYTAEGVMDKHSLWQRYVPLVRHEALRLQVRLPASVELDDLLQAGGIGLLNAVERYDALQGTAFTTYAVQRIRGAMLDELRSRDWVPRSVRRNAREVAQAIGQLEQELGRNATETEVAERLGIDIADYRQMLLDTNNSQLFSYDEWREEHGDSIELVTDDHQRENPLQQLLDSNLRQRVMEAIETLPEREKLVLTLYYQEELNLKEIGAVLEVGESRVSQLHSQAIKRLRTKLGKL [P0AEM6]	–	4.94 h	–	–	–	1.78 ± 0.19 h	2.5 ± 0.38 h	3 ± 0.9 h	–	–	–	–
MNSNKELMQRRSQAIPRGVGQIHPIFADRAENCRVWDVEGREYLDFAGGIAVLNTGHLHPKVVAAVEAQLKKLSHTCFQVLAYEPYLELCEIMNQKVPGDFAKKTLLVTTGSEAVENAVKIARAATKRSGTIAFSGAYHGRTHYTLALTGKVNPYSAGMGLMPGHVYRALYPCPLHGISEDDAIASIHRIFKNDAAPEDIAAIVIEPVQGEGGFYASSPAFMQRLRALCDEHGIMLIADEVQSGAGRTGTLFAMEQMGVAPDLTTFAKSIAGGFPLAGVTGRAEVMDAVAPGGLGGTYAGNPIACVAALEVLKVFEQENLLQKANDLGQKLKDGLLAIAEKHPEIGDVRGLGAMIAIELFEDGDHNKPDAKLTAEIVARARDKGLILLSCGPYYNVLRILVPLTIEDAQIRQGLEIISQCFDEAKQ	2.83 ± 0.11 h	3.78 ± 0.21 h	2.96 ± 0.38 h	2.98 ± 0.17 h	3.23 ± 0.15 h	2.993 ± 0.012 h	4.86 ± 0.26 h	9.33 ± 1.2 h	3.04 ± 0.32 h	4.1 ± 0.17 h	5.414 ± 0.018 h	9.92 ± 0.68 h
MNSRQQTILQMVIDQGQVSVTDLAKATGVSEVTIRQDLNTLEKLSYLRRAHGFAVSLDSDDVETRMMSNYTLKRELAEFAASLVQPGETIFIENGSSNALLARTLGEQKKNVTIITVSSYIAHLLKDAPCEVILLGGVYQKKSESMVGPLTRQCIQQVHFSKAFIGIDGWQPETGFTGRDMMRTDVVNAVLEKECEAIVLTDSSKFGAVHSYSIGPVERFNRVITDSKIRASDLMHLEHSKLTIHVVDI	5.76 ± 0.27 h	6.45 ± 1.4 h	6.46 ± 0.62 h	6.54 ± 0.67 h	6.01 ± 0.45 h	2.87 ± 0.21 h	5.51 ± 0.27 h	11.6 ± 0.87 h	5.91 ± 0.31 h	–	5.57 ± 0.19 h	13.3 ± 0.69 h
MNTARLNQGTPLLLNAVSKHYAENIVLNQLDLHIPAGQFVAVVGRSGGGKSTLLRLLAGLETPTAGDVLAGTTPLAEIQEDTRMMFQDARLLPWKSVIDNVGLGLKGQWRDAARRALAAVGLENRAGEWPAALSGGQKQRVALARALIHRPGLLLLDEPLGALDALTRLEMQDLIVSLWQEHGFTVLLVTHDVSEAVAMADRVLLIEEGKIGLDLTVDIPRPRRLGSVRLAELEAEVLQRVMQRGESETRLRKQG [P0AAI1]	–	5.9 ± 0.12 h	1.1 h	–	–	–	–	–	–	–	–	–
MNTFSVSRLALALAFGVTLTACSSTPPDQRPSDQTAPGTSSRPILSAKEAQNFDAQHYFASLTPGAAAWNPSPITLPAQPDFVVGPAGTQGVTHTTIQAAVDAAIIKRTNKRQYIAVMPGEYQGTVYVPAAPGGITLYGTGEKPIDVKIGLSLDGGMSPADWRHDVNPRGKYMPGKPAWYMYDSCQSKRSDSIGVLCSAVFWSQNNGLQLQNLTIENTLGDSVDAGNHPAVALRTDGDQVQINNVNILGRQNTFFVTNSGVQNRLETNRQPRTLVTNSYIEGDVDIVSGRGAVVFDNTEFRVVNSRTQQEAYVFAPATLSNIYYGFLAVNSRFNAFGDGVAQLGRSLDVDANTNGQVVIRDSAINEGFNTAKPWADAVISNRPFAGNTGSVDDNDEIQRNLNDTNYNRMWEYNNRGVGSKVVAEAKK	5.993 ± 0.019 h	5.8 ± 0.063 h	7.06 ± 1.3 h	6.54 ± 0.33 h	6.89 ± 0.2 h	3.15 ± 0.05 h	6.27 ± 0.39 h	11.6 ± 0.95 h	6.28 ± 0.13 h	14.1 ± 0.59 h	6.3 ± 0.14 h	13.7 ± 0.19 h
MNTIASVTLPHHVHAPRYDRQQLQSRIVHFGFGAFHRAHQALLTDRVLNAQGGDWGICEISLFSGDQLMSQLRAQNHLYTVLEKGADGNQVIIVGAVHECLNAKLDSLAAIIEKFCEPQVAIVSLTITEKGYCIDPATGALDTSNPRIIHDLQTPEEPHSAPGILVEALKRRRERGLTPFTVLSCDNIPDNGHVVKNAVLGMAEKRSPELAGWIKEHVSFPGTMVDRIVPAATDESLVEISQHLGVNDPCAISCEPFIQWVVEDNFVAGRPAWEVAGVQMVNDVLPWEEMKLRMLNGSHSFLAYLGYLSGFAHISDCMQDRAFRHAARTLMLDEQAPTLQIKDVDLTQYADKLIARFANPALKHKTWQIAMDGSQKLPQRMLAGIRIHQGRETDWSLLALGVAGWMRYVSGVDDAGNAIDVRDPLSDKIRELVAGSSSEQRVTALLSLREVFGDDLPDNPHFVQAIEQAWQQIVQFGAHQALLNTLKI	–	5.54 ± 0.38 h	–	–	–	0.36 ± 0.057 h	0.863 h	0.917 h	–	–	–	–
MNTIFSARIMKRLALTTALCTAFISAAHADDLNIKTMIPGVPQIDAESYILIDYNSGKVLAEQNADVRRDPASLTKMMTSYVIGQAMKAGKFKETDLVTIGNDAWATGNPVFKGSSLMFLKPGMQVPVSQLIRGINLQSGNDACVAMADFAAGSQDAFVGLMNSYVNALGLKNTHFQTVHGLDADGQYSSARDMALIGQALIRDVPNEYSIYKEKEFTFNGIRQLNRNGLLWDNSLNVDGIKTGHTDKAGYNLVASATEGQMRLISAVMGGRTFKGREAESKKLLTWGFRFFETVNPLKVGKEFASEPVWFGDSDRASLGVDKDVYLTIPRGRMKDLKASYVLNSSELHAPLQKNQVVGTINFQLDGKTIEQRPLVVLQEIPEGNFFGKIIDYIKLMFHHWFG [P0AEB2]	6.03 ± 0.14 h	6.19 ± 0.7 h	6.72 ± 0.74 h	6.22 ± 0.15 h	6.61 ± 0.36 h	3.24 ± 0.07 h	6.05 ± 0.17 h	12 ± 2.8 h	6.23 ± 0.14 h	14.5 ± 2 h	6.1 ± 0.093 h	13.2 ± 0.43 h
